According to patent publication US20080107630:

Test system: gelatin (0.1%, incorporated in a 10% Tris-glycine polyacrylamide gel as substrate)

Substance: human matrix metalloproteinase-8 (recombinant, secreted by A549 cells infected with AdMMP8)
- gelatin hydrolysis in zymogram gel: The gelatin hydrolysis visible in the zymogram gel
